Data as given in patent US20110160439A1 (H LUNDBECK A S, published 2011).
Where no end group is shown, it is not given here.

T1: Soluble Sortilin (sSortilin), luminal domain of human Sortilin fused C-terminally to His6 (human, UniProt Q99523 78-755)
T1 construct: Expressed in CHO-K1 cells; The propeptide is removed in the mature receptor; also called wt sSortilin; wtSortilin
T1 sequence: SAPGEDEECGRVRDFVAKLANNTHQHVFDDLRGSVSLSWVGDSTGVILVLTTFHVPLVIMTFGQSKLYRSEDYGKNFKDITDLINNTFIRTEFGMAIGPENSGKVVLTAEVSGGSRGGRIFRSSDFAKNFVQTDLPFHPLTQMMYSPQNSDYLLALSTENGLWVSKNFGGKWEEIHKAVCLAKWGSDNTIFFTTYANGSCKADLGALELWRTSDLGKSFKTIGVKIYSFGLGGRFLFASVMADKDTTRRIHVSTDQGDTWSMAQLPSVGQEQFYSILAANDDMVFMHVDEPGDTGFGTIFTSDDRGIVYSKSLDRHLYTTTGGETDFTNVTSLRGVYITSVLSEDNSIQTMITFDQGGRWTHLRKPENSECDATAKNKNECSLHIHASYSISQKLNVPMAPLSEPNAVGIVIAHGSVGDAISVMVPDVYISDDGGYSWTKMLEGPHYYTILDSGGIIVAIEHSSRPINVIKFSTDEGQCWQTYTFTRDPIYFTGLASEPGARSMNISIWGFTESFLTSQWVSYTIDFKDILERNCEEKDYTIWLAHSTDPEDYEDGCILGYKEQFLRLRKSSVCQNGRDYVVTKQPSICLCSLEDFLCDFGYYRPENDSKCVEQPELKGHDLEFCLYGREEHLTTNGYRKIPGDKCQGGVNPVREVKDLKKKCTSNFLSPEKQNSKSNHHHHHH

T2: sSortilin S316E mutant (human, UniProt Q99523 78-755)
T2 sequence: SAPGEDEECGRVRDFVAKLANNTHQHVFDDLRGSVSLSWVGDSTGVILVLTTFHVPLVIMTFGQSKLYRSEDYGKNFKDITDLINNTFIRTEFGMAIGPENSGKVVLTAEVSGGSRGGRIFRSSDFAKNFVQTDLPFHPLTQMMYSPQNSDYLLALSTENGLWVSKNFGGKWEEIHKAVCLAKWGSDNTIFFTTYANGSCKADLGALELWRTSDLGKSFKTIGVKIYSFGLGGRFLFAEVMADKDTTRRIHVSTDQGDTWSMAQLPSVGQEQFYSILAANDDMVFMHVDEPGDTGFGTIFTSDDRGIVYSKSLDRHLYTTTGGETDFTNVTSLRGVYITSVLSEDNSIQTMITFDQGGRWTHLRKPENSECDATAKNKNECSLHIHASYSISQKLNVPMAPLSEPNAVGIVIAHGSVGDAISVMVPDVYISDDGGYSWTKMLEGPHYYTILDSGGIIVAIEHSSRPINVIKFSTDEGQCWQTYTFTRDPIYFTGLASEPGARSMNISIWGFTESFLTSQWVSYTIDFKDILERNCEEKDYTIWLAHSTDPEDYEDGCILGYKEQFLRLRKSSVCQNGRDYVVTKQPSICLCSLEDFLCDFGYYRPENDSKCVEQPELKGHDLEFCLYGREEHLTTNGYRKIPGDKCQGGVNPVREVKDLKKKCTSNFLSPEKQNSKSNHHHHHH


Experiments:
[1] = molecular target: T1, Soluble Sortilin (sSortilin), luminal …; assay: SPR, wt sSortilin immobilised
Protocol: (§1) The receptors were immobilized at similar concentrations (0.06 pM/mm²) and binding was analyzed by SPR.
(§2) Surface plasmon resonance (SPR) measurements were performed on a BIAcore 2000 instrument (Biacore Sweden) equipped with CM5 sensor chips maintained at 20° C. A continuous flow of HBS buffer (10 mM HEPES pH 7.4, 3.4 mM EDTA, 150 mM NaCl, 0.005% surfactant P20) passing over the sensor surface was maintained at 5 μl/min. The carboxylated dextran matrix of the sensor chip flow cells 1-3 was activated by the injection of a solution containing 0.2 M N-ethyl-N-(3 dimethylamino-propyl)carbodiimide and 0.05MN-hydroxysuccimide in water. A sortilin solution (320 μl, 5 μg/ml in 10 mM sodium acetate pH 4.0) was then injected over flow cells 1 and 2 at a flow rate of 15 μl/min. Remaining binding sites in all three flow cells were blocked by injection (5 μl/min) of 70 μl of 1 M ethanolamine pH 8.5. […] Screening of the samples was performed by injecting aliquots of 50 μl, at concentrations of 0.1-8 μM, through all flow cells with a flow rate of 5 μl/min. Unless otherwise stated, the samples were dissolved in 10 mM HEPES pH 7.4, 150 mM NaCl, 1.5 mM CaCl2, 1 mM EGTA, 0.005% surfactant P20. Sample buffer was also used as running buffer. […]

[2] = molecular target: T2, sSortilin S316E mutant; assay: SPR, mutant sSortilin immobilised
Protocol: as §1, §2

[3] = molecular target: T1, Soluble Sortilin (sSortilin), luminal …; assay: SPR (BIAcore 3000), sSortilin immobilised on CM5 chip
Protocol: All measurements were performed on a BIAcore 3000 instrument (Biacore Sweden) maintained at 20° C. A continuous flow of buffer F (10 mM HEPES pH=7.4, 150 mM (NH₄)₂SO₄, 1.5 mM CaCl₂, 1.5 mM EGTA and 0.005% Tween-20) was passed over the CM5 chip sensor surface at 5 μl/min.

Binder	binding result [1]	binding result [2]	Kd [3] [nM]
Mature BDNF (ligand) HSDPARRGELSVCDSISEWVTAADKKTAVDMSGGTVTVLEKVPVSKGQLKQYFYETKCNPMGYTKEGCRGIDKRHWNSQCRTTQSYVRALTMDSKKRIGWRFIRIDTSCVCTLTIKRGR	binds	binds	
QDRLDAPPPPAAPLPRWSGPIGVSWGLRAAAAGGAFPRGGRWRR (other, also: GST tag, order and linker not given here, also called GST-Sort-pro; (GST)Sort-pro; not shown: glutathione S-transferase (GST) tag) [GST-tagged Sortilin propeptide]		no binding	
Propeptide of Nerve Growth Factor (NGFpro), E. coli-expressed, His6 tag removed by TEV (ligand, also called pro-domain of Nerve Growth Factor; NGF prodomain) EPHSESNVPAGHTIPQVHWTKLQHSLDTALRRARSAPAAAIAARVAGQTRNITVDPRLFKKRRLRSPRVLFSTQPPREAADTQDLDFEVGGAAPFNRTHRSKR			~10
